Molecular target: anti-GASP-1 polyclonal antibody raised against a GASP-1 fragment consisting of … (SEQ ID NO: 2)
Experiment: competitive ELISA: free peptide against plate-bound BSA-GASP-1 conjugate for the biotinylated antibody

## EEASPEAVAGVGFESK [GASP-1 peptide … (SEQ ID NO: 2)]
  difference in OD values between zero and 0.3 ng/ml competing peptide: 1.1 OD (450 nm)

Reference: US20200225235A1
